The source of these data is patent publication US20160130329A1 (UNIVERSITY OF CHICAGO, published 2016).

Where no end group is shown, it is not given here. [ ]: non-standard residue; d: D form. Lys(Me3) = C[N+](C)(C)CCCC[C@H](N)C(=O)O

Assay [1] has as its target T1, H3K4me3 peptide (also: biotinylated, site not given here).
T1 peptide: ART[Lys(Me3)]QTARKSTGGYCD
In words: quantitative peptide IP assay.

In assay [2] the target is T1, H3K4me3 peptide. Kind of assay: peptide IP assay (antibody on beads, flow cytometry). Background: Flow cytometry measures light scatter and fluorescence of single cells or particles in a stream.
Assay [3] addresses T1, H3K4me3 peptide. In words: quantitative peptide IP assay, biotinylated Fab on streptavidin beads, flow cytometry.
Assay [4] deals with T2, H3K36me3 peptide (K(me3) at H3 K36; K(biotin) near the C-terminus, as printed: SAPATGGVK-K(me3)-PHRYRPGG-K(biotin)-D).
T2 peptide: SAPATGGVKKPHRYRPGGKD
In words: peptide IP assay (FIG. 8B).

Assay [5] addresses T3, H3K56me3 peptide (K(me3) at H3 K56; K(biotin) near the C-terminus, as printed: LREIRRYQ-K(me3)-STELLIRGG-K(biotin)-D).
T3 peptide: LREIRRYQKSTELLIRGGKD
Kind of assay: peptide IP assay (FIG. 8B).

In assay [6] the target is T2, H3K36me3 peptide. In words: peptide IP assay (antibody on beads, flow cytometry).
In assay [7] the target is T3, H3K56me3 peptide. Described as above.
Assay [8] concerns the target T4, cross-linked chromatin from HEK293T cells.
T4 construct: A protein-DNA complex
In words: cross-linked ChIP from HEK293T cells followed by qPCR.

The target in assay [9] is T1, H3K4me3 peptide. In words: peptide IP assay (antibody on beads, flow cytometry).
The target of another assay is T5, H4K20me3 peptide (trimethyl-lysine at K20 (histone H4 numbering); biotinylated through the GYCD tag).
T5 peptide: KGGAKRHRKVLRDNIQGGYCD
Described as above.

The next assay deals with T6, H3K27me3 peptide (trimethyl-lysine at K27 (histone H3 numbering); biotinylated through the GYCD tag).
T6 peptide: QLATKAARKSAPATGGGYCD
In words: phage ELISA [A].

B1: 304M3-A (Fab, V domains shown)
VH: EVQLVETGGGVVQPGRSLRLSCTASGFTFRDYWMSWVRQAPGKGLEWVADINQDGSALYYVDAVKGRFTISRDNAKSSLYLQMNSLGAEDTAVYYCARDLIYGFGWHFDLWGRGTLVTVSS
VL: not shown
notes: Produced and characterized in the same manner as 309M3-A: biotinylated Fab with a biotinylation acceptor peptide at the C-terminus of the heavy chain; also called recombinant anti-H3K4me3 antibody; 304M3-A antibody
In the case of B1, in the assay with H3K4me3 peptide [1], the “fold increase in affinity compared with the lead antibody (scFv 4-5)” value was 360 fold. Moreover, the Kd with H3K4me3 peptide [2] stood at 20 nM; with H3K4me3 peptide [3], 16 nM. Besides, the binding result with H3K36me3 peptide [4] and with H3K56me3 peptide [5] was “no binding” throughout.

B2: 309M3-A (Fab, V domains shown)
VH: EVQLVETGGGVVQPGRSLRLSCTASGFTFRDHWMSWVRQAPGKGLEWVADINGDSILEYYVDAVKGRFTISRDNAKSSLYLQMNSLGAEDTAVYYCARDFHRGYGWHFDLWGRGTLVTVSS
VL: not shown
notes: also called recombinant anti-H3K9me3 antibody; 309M3-A antibody
On to B2, for which the binding result with H3K36me3 peptide [6] is recorded as “no binding (tested: 500 nM)”; with H3K56me3 peptide [7] it was “no binding (tested: 500 nM)”; in the assay with H3K4me3 peptide [9], “no binding (tested: 500 nM)”; in the assay with H4K20me3 peptide, “no binding (tested: 500 nM)”; with H3K27me3 peptide, “no binding (tested: 100 nM peptide)”. Moreover, the “ChIP enrichment relative to pAb-056-050 (lot A93-0042)” value in [8] was approximately 3 fold.

For orientation: Kd means the constant that tells how readily two partners part at equilibrium.
